Laboratory results reported in the supplement of paper PMC10567573.

B1: PPP2R2C (parent)
chain: YSSSKGSLRLCDMRAAALCDKHSK
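Also: lentivirally expressed fusions sorted by FACS into six bins by GFP to DsRed ratio, PSI derived from sequencing read proportions per bin multiplied by bin number.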

Variants of: B1
Assay: protein stability index of a GFP-peptide fusion (GPS, HEK-293T) (PSI 1-6); higher = more stable
Conditions: c terminus: a fixed tail appended
For YSQSKGSLRLCDMRAAALCDKHSK, the protein stability index was 2.45.
Work on YSRSKGSLRLCDMRAAALCDKHSK yielded a protein stability index of 2.29.
For YSTSKGSLRLCDMRAAALCDKHSK, the protein stability index was 2.11.
With YSVSKGSLRLCDMRAAALCDKHSK the protein stability index was 1.96.
YSWSKGSLRLCDMRAAALCDKHSK gave a protein stability index of 2.15.
In the case of YSYSKGSLRLCDMRAAALCDKHSK, the protein stability index is reported as 1.83.
YSSAKGSLRLCDMRAAALCDKHSK gave a protein stability index of 2.44.
In the case of YSSCKGSLRLCDMRAAALCDKHSK, the protein stability index is reported as 1.38.
YSSDKGSLRLCDMRAAALCDKHSK showed a protein stability index of 2.96.
With YSSEKGSLRLCDMRAAALCDKHSK the protein stability index was 2.78.
For YSSFKGSLRLCDMRAAALCDKHSK, the protein stability index was 2.27.
With YSSGKGSLRLCDMRAAALCDKHSK the protein stability index was 2.87.
In the case of YSSHKGSLRLCDMRAAALCDKHSK, the protein stability index is reported as 2.09.
YSSIKGSLRLCDMRAAALCDKHSK showed a protein stability index of 2.06.
Work on YSSKKGSLRLCDMRAAALCDKHSK yielded a protein stability index of 1.34.
In the case of YSSLKGSLRLCDMRAAALCDKHSK, the protein stability index is reported as 2.62.
With YSSMKGSLRLCDMRAAALCDKHSK the protein stability index was 2.
YSSNKGSLRLCDMRAAALCDKHSK gave a protein stability index of 2.32.
YSSPKGSLRLCDMRAAALCDKHSK showed a protein stability index of 2.57.
YSSQKGSLRLCDMRAAALCDKHSK showed a protein stability index of 2.32.
YSSRKGSLRLCDMRAAALCDKHSK gave a protein stability index of 2.11.
For YSSTKGSLRLCDMRAAALCDKHSK, the protein stability index was 1.8.
For YSSVKGSLRLCDMRAAALCDKHSK, the protein stability index was 2.45.
In the case of YSSWKGSLRLCDMRAAALCDKHSK, the protein stability index is reported as 1.63.
YSSYKGSLRLCDMRAAALCDKHSK gave a protein stability index of 1.98.
YSSSAGSLRLCDMRAAALCDKHSK showed a protein stability index of 1.65.
YSSSCGSLRLCDMRAAALCDKHSK gave a protein stability index of 1.68.
With YSSSDGSLRLCDMRAAALCDKHSK the protein stability index was 2.06.
With YSSSEGSLRLCDMRAAALCDKHSK the protein stability index was 1.73.
In the case of YSSSFGSLRLCDMRAAALCDKHSK, the protein stability index is reported as 1.84.
YSSSGGSLRLCDMRAAALCDKHSK showed a protein stability index of 1.49.
In the case of YSSSHGSLRLCDMRAAALCDKHSK, the protein stability index is reported as 1.68.
YSSSIGSLRLCDMRAAALCDKHSK showed a protein stability index of 2.19.
YSSSLGSLRLCDMRAAALCDKHSK gave a protein stability index of 1.93.
YSSSMGSLRLCDMRAAALCDKHSK gave a protein stability index of 2.1.
With YSSSNGSLRLCDMRAAALCDKHSK the protein stability index was 1.43.
In the case of YSSSPGSLRLCDMRAAALCDKHSK, the protein stability index is reported as 2.03.
In the case of YSSSQGSLRLCDMRAAALCDKHSK, the protein stability index is reported as 2.12.
Variant YSSSRGSLRLCDMRAAALCDKHSK has a protein stability index of 1.85.
YSSSSGSLRLCDMRAAALCDKHSK gave a protein stability index of 2.27.
YSSSTGSLRLCDMRAAALCDKHSK showed a protein stability index of 2.23.
With YSSSVGSLRLCDMRAAALCDKHSK the protein stability index was 1.55.
For YSSSWGSLRLCDMRAAALCDKHSK, the protein stability index was 2.11.
With YSSSYGSLRLCDMRAAALCDKHSK the protein stability index was 1.52.
YSSSKASLRLCDMRAAALCDKHSK showed a protein stability index of 1.91.
Work on YSSSKCSLRLCDMRAAALCDKHSK yielded a protein stability index of 1.95.
YSSSKDSLRLCDMRAAALCDKHSK showed a protein stability index of 2.73.
For YSSSKESLRLCDMRAAALCDKHSK, the protein stability index was 2.68.
With YSSSKFSLRLCDMRAAALCDKHSK the protein stability index was 1.81.
With YSSSKHSLRLCDMRAAALCDKHSK the protein stability index was 2.04.
Variant YSSSKISLRLCDMRAAALCDKHSK has a protein stability index of 2.31.
Work on YSSSKKSLRLCDMRAAALCDKHSK yielded a protein stability index of 2.2.
Variant YSSSKLSLRLCDMRAAALCDKHSK has a protein stability index of 2.18.
In the case of YSSSKMSLRLCDMRAAALCDKHSK, the protein stability index is reported as 1.85.
Variant YSSSKNSLRLCDMRAAALCDKHSK has a protein stability index of 1.94.
YSSSKPSLRLCDMRAAALCDKHSK gave a protein stability index of 2.48.
With YSSSKQSLRLCDMRAAALCDKHSK the protein stability index was 2.39.
For YSSSKRSLRLCDMRAAALCDKHSK, the protein stability index was 2.05.
In the case of YSSSKSSLRLCDMRAAALCDKHSK, the protein stability index is reported as 1.82.
YSSSKTSLRLCDMRAAALCDKHSK showed a protein stability index of 2.07.
Variant YSSSKVSLRLCDMRAAALCDKHSK has a protein stability index of 2.21.
YSSSKWSLRLCDMRAAALCDKHSK gave a protein stability index of 1.76.
YSSSKYSLRLCDMRAAALCDKHSK gave a protein stability index of 1.52.
With YSSSKGALRLCDMRAAALCDKHSK the protein stability index was 2.9.
YSSSKGCLRLCDMRAAALCDKHSK gave a protein stability index of 1.76.
Work on YSSSKGDLRLCDMRAAALCDKHSK yielded a protein stability index of 2.24.
YSSSKGELRLCDMRAAALCDKHSK gave a protein stability index of 1.56.
With YSSSKGGLRLCDMRAAALCDKHSK the protein stability index was 4.06.
For YSSSKGHLRLCDMRAAALCDKHSK, the protein stability index was 2.92.
For YSSSKGILRLCDMRAAALCDKHSK, the protein stability index was 1.34.
With YSSSKGKLRLCDMRAAALCDKHSK the protein stability index was 1.07.
With YSSSKGLLRLCDMRAAALCDKHSK the protein stability index was 1.49.
For YSSSKGMLRLCDMRAAALCDKHSK, the protein stability index was 1.76.
Variant YSSSKGNLRLCDMRAAALCDKHSK has a protein stability index of 1.65.
In the case of YSSSKGPLRLCDMRAAALCDKHSK, the protein stability index is reported as 1.89.
In the case of YSSSKGQLRLCDMRAAALCDKHSK, the protein stability index is reported as 2.04.
For YSSSKGRLRLCDMRAAALCDKHSK, the protein stability index was 2.04.
Work on YSSSKGTLRLCDMRAAALCDKHSK yielded a protein stability index of 1.8.
Work on YSSSKGVLRLCDMRAAALCDKHSK yielded a protein stability index of 2.24.
YSSSKGWLRLCDMRAAALCDKHSK gave a protein stability index of 3.69.
With YSSSKGYLRLCDMRAAALCDKHSK the protein stability index was 1.94.
In the case of YSSSKGSARLCDMRAAALCDKHSK, the protein stability index is reported as 1.75.
Work on YSSSKGSCRLCDMRAAALCDKHSK yielded a protein stability index of 2.5.
YSSSKGSDRLCDMRAAALCDKHSK gave a protein stability index of 2.76.
For YSSSKGSERLCDMRAAALCDKHSK, the protein stability index was 2.41.
YSSSKGSFRLCDMRAAALCDKHSK gave a protein stability index of 2.5.
Work on YSSSKGSGRLCDMRAAALCDKHSK yielded a protein stability index of 2.19.
YSSSKGSHRLCDMRAAALCDKHSK gave a protein stability index of 2.64.
Work on YSSSKGSIRLCDMRAAALCDKHSK yielded a protein stability index of 1.78.
YSSSKGSKRLCDMRAAALCDKHSK gave a protein stability index of 2.17.
Variant YSSSKGSMRLCDMRAAALCDKHSK has a protein stability index of 1.79.
In the case of YSSSKGSNRLCDMRAAALCDKHSK, the protein stability index is reported as 2.36.
YSSSKGSPRLCDMRAAALCDKHSK showed a protein stability index of 2.27.
With YSSSKGSQRLCDMRAAALCDKHSK the protein stability index was 1.89.
